Where “and” joins values, the source holds several entries; their conditions need not be identical. Equal values may be shown once.
B1: IQGAP2^C795 (C-terminal fragment of IQGAP2) (domain or fragment, human, UniProt Q13576 780-1575, looked up)
chain: PLTVIRKFVYLLDQSDLDFQEELEVARLREEVVTKIRANQQLEKDLNLMDIKIGLLVKNRITLEDVISHSKKLNKKKGGEMEILNNTDNQGIKSLSKERRKTLETYQQLFYLLQTNPLYLAKLIFQMPQNKSTKFMDTVIFTLYNYASNQREEYLLLKLFKTALEEEIKSKVDQVQDIVTGNPTVIKMVVSFNRGARGQNTLRQLLAPVVKEIIDDKSLIINTNPVEVYKAWVNQLETQTGEASKLPYDVTTEQALTYPEVKNKLEASIENLRRVTDKVLNSIISSLDLLPYGLRYIAKVLKNSIHEKFPDATEDELLKIVGNLLYYRYMNPAIVAPDGFDIIDMTAGGQINSDQRRNLGSVAKVLQHAASNKLFEGENEHLSSMNNYLSETYQEFRKYFKEACNVPEPEEKFNMDKYTDLVTVSKPVIYISIEEIISTHSLLLEHQDAIAPEKNDLLSELLGSLGEVPTVESFLGEGAVDPNDPNKANTLSQLSKTEISLVLTSKYDIEDGEAIDSRSLMIKTKKLIIDVIRNQPGNTLTEILETPATAQQEVDHATDMVSRAMIDSRTPEEMKHSQSMIEDAQLPLEQKKRKIQRNLRTLEQTGHVSSENKYQDILNEIAKDIRNQRIYRKLRKAELAKLQQTLNALNKKAAFYEEQINYYDTYIKTCLDNLKRKNTRRSIKLDGKGEPKGAKRAKPVKYTAAKLHEKGVLLDIDDLQTNQFKNVTFDIIATEDVGIFDVRSKFLGVEMEKVQLNIQDLLQMQYEGVAVMKMFDKVKVNVNLLIYLLNKKFYGK
notes: IQGAP2, aa 780-1575; also called IQGAP2^C975
B2: IQGAP1^C794 (C-terminal half of human IQGAP1 with the GRD, RGCT and CT domains) (domain or fragment, UniProt P46940 863-1657, looked up)
chain: DPPMVVVRKFVHLLDQSDQDFQEELDLMKMREEVITLIRSNQQLENDLNLMDIKIGLLVKNKITLQDVVSHSKKLTKKNKEQLSDMMMINKQKGGLKALSKEKREKLEAYQHLFYLLQTNPTYLAKLIFQMPQNKSTKFMDSVIFTLYNYASNQREEYLLLRLFKTALQEEIKSKVDQIQEIVTGNPTVIKMVVSFNRGARGQNALRQILAPVVKEIMDDKSLNIKTDPVDIYKSWVNQMESQTGEASKLPYDVTPEQALAHEEVKTRLDSSIRNMRAVTDKFLSAIVSSVDKIPYGMRFIAKVLKDSLHEKFPDAGEDELLKIIGNLLYYRYMNPAIVAPDAFDIIDLSAGGQLTTDQRRNLGSIAKMLQHAASNKMFLGDNAHLSIINEYLSQSYQKFRRFFQTACDVPELQDKFNVDEYSDLVTLTKPVIYISIGEIINTHTLLLDHQDAIAPEHNDPIHELLDDLGEVPTIESLIGESSGNLNDPNKEALAKTEVSLTLTNKFDVPGDENAEMDARTILLNTKRLIVDVIRFQPGETLTEILETPATSEQEAEHQRAMQRRAIRDAKTPDKMKKSKSVKEDSNLTLQEKKEKIQTGLKKLTELGTVDPKNKYQELINDIARDIRNQRRYRQRRKAELVKLQQTYAALNSKATFYGEQVDYYKSYIKTCLDNLASKGKVSKKPREMKGKKSKKISLKYTAARLHEKGVLLEIEDLQVNQFKNVIFEISPTEEVGDFEVKAKFMGVQMETFMLHYQDLLQLQYEGVAVMKLFDRAKVNVNLLIFLLNKKFYGK
B3: CDC42 (aa 1-178) (natural protein)
chain: not shown

Assays:
CDC42 (aa 1-178) [1] = biological target: B3; test: SEC; analytical SEC, Superdex 200 10/300, 30 mM Tris/HCl pH 7.5, 150 mM NaCl, 5 mM MgCl2; IQGAP1^C794 and IQGAP2^C795 alone or mixed with CDC42•GppNHp or RAC1•GppNHp; fractions on Coomassie-stained SDS-PAGE; MW from a calibration curve; set-up: reference not given here; details: both partners purified
Chain of CDC42 (aa 1-178) (P60953 1-178): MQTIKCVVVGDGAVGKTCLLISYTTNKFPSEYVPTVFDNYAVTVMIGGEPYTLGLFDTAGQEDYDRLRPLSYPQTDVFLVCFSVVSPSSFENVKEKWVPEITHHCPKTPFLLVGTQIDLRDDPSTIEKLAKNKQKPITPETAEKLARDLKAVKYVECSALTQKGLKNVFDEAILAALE

[2] = biological target: the molecule itself; test: as above; set-up: reference not given here
RAC1 (aa 1-179) [3] = biological target: T1, RAC1 (aa 1-179) (human, UniProt P63000 1-179); test: as above; set-up: reference not given here; details: both partners purified
RAC2 (aa 1-192) [4] = biological target: T2, RAC2 (aa 1-192) (human, UniProt P15153 1-192); test: stopped-flow fluorescence spectrometry; association (kobs): 2 µM IQGAP1^C794 or IQGAP2^C795 mixed with 0.2 µM mGppNHp-bound RHO GTPase; 30 mM Tris-HCl pH 7.5, 10 mM K2HPO4/KH2PO4 pH 7.4, 2 mM MgCl2, 3 mM DTT, 25 °C; details: both partners purified
RAC3 (aa 1-192) [5] = biological target: T3, RAC3 (aa 1-192) (human, UniProt P60763 1-192); test: as above; details: both partners purified
RAC1 (aa 1-179) [6] = biological target: T1, RAC1 (aa 1-179); test: cell-based or functional assay
RAC1 Q74D = RAC1 Q74D (human, UniProt P63000 1-179, Q74D); test: stopped-flow fluorescence spectrometry; kon from 0.2 µM mGppNHp-bound RHO GTPase with 2-8 µM IQGAP1^C794; koff by displacing with 10 µM unlabeled RAC1-GppNHp from 2 µM IQGAP1^C794 with 0.2 µM GTPase; Kd calculated from the rate constants; 25 °C; details: both partners purified
RAC2 (aa 1-192) [7] = biological target: T2, RAC2 (aa 1-192); test: as above; details: both partners purified
CDC42 (aa 1-178) [8] = biological target: B3; test: as above; details: both partners purified
RAC3 (aa 1-192) [9] = biological target: T3, RAC3 (aa 1-192); test: as above; details: both partners purified
RAC1 M45E/N52E = RAC1 M45E/N52E (human, UniProt P63000 1-179, M45E | N52E); test: as above; details: both partners purified
RAC1 T25K/N26D = RAC1 T25K/N26D (human, UniProt P63000 1-179, T25K | N26D); test: as above; details: both partners purified
[10] = biological target: B2; test: stopped-flow fluorescence spectrometry; association (kobs): 2 µM IQGAP1^C794 or IQGAP2^C795 mixed with 0.2 µM mGppNHp-bound RHO GTPase; 30 mM Tris-HCl pH 7.5, 10 mM K2HPO4/KH2PO4 pH 7.4, 2 mM MgCl2, 3 mM DTT, 25 °C; details: both partners purified
[11] = biological target: B1; test: as above; details: both partners purified

stoichiometry N (CDC42 (aa 1-178) [1])	stoichiometry N (RAC1 (aa 1-179) [3])	binding result (RAC2 (aa 1-192) [4])	binding result (RAC3 (aa 1-192) [5])	p50^GAP-stimulated GTP hydrolysis of tamraGTP-bound RAC1 (0.2 µM RAC1, 10 µM p50^GAP) in the presence of IQGAP1^C794 (RAC1 (aa 1-179) [6]) [fold]	binding result (RAC1 Q74D)	Kd (RAC2 (aa 1-192) [7]) [nM]	fold faster kon than with RAC1 (RAC2 (aa 1-192) [7]) [fold]	fold lower Kd than with RAC1 (RAC2 (aa 1-192) [7]) [fold]	fold lower koff than with RAC1 (RAC2 (aa 1-192) [7]) [fold]	fold higher binding affinity than with RAC1 (CDC42 (aa 1-178) [8]) [fold]	binding result (RAC3 (aa 1-192) [9])	binding result (RAC1 M45E/N52E)	binding result (RAC1 T25K/N26D)	binding result [10]	binding result [11]	Binder	stoichiometry N [2]
1 IQGAP per GTPase (printed as 2:2)	1 IQGAP per GTPase (printed as 2:2)	binds	binds													B1	3 and 4
1 IQGAP per GTPase (printed as 2:2)	1 IQGAP per GTPase (printed as 2:2)			25	binds	27	4	34	8	3	binds	binds	binds			B2	2
														binds	binds	B3	2

From paper PMC8625570, “Selectivity Determinants of RHO GTPase Binding to IQGAPs” (International Journal of Molecular Sciences, 2021)
